{"source": "paper PMC4981318", "key": {"[1]": {"molecular_target": "gp41 17–194 (Env 528 to 705; FPPR to TM, IL replaced by the L6 spacer) (HIV-1 (HXB2 isolate))", "assay": "AUC; sedimentation velocity, 20°C; 20 mM sodium phosphate, pH 7, without NaCl, DPC; 1–2 μM protein left soluble"}, "[2]": {"molecular_target": "gp41 17–163 (construct H; MPER truncated by 9 C-terminal residues) (HIV-1 (HXB2 isolate))", "assay": "AUC; sedimentation velocity, 50,000 rpm, 20°C; 20 mM sodium phosphate, pH 7, 150 mM NaCl, 10 mM DPC (excess of micelles); 10–20 μM protein"}}, "data": [{"substance": "gp41 17–194 (Env 528 to 705; FPPR to TM, IL replaced by the L6 spacer) (domain or fragment)", "values": [{"measurement": "stoichiometry N", "setting": "[1]", "result": 3}]}, {"substance": "gp41 17–163 (construct H; MPER truncated by 9 C-terminal residues) (domain or fragment)", "values": [{"measurement": "stoichiometry N", "setting": "[2]", "result": 3}]}]}
